Series [1] has as its target LARGE1 without its CC domain (-CC), soluble secreted form (human) (UniProt O95461). Nature of the series: mass photometry.
The target is the same in series [2]. Nature of the series: cryo-EM structure.
The target is the same in series [3]. Nature of the series: crystal structure.
Series [4] deals with the molecule itself. Nature of the series: mass photometry.

As usually defined, the stoichiometry N is the number of molecules, sites or subunits per partner or assembly.

On to “LARGE1 without its CC domain (-CC), soluble secreted form (from UniProt O95461 96-276) (domain or fragment)”, for which the stoichiometry N in series [1], in series [2] and in series [3] was 2 in each case.

B1: LARGE1 with its coiled-coil (+CC) domain (residues 29-756), soluble secreted form (domain or fragment, human, UniProt O95461 29-756, looked up)
chain: LFSGSFEDGKPVSLSPLESQAHSPRYTASSQRERESLEVRMREVEEENRALRRQLSLAQGRAPSHRRGNHSKTYSMEEGTGDSENLRAGIVAGNSSECGQQPVVEKCETIHVAIVCAGYNASRDVVTLVKSVLFHRRNPLHFHLIADSIAEQILATLFQTWMVPAVRVDFYNADELKSEVSWIPNKHYSGIYGLMKLVLTKTLPANLERVIVLDTDITFATDIAELWAVFHKFKGQQVLGLVENQSDWYLGNLWKNHRPWPALGRGYNTGVILLLLDKLRKMKWEQMWRLTAERELMGMLSTSLADQDIFNAVIKQNPFLVYQLPCFWNVQLSDHTRSEQCYRDVSDLKVIHWNSPKKLRVKNKHVEFFRNLYLTFLEYDGNLLRRELFGCPSEADVNSENLQKQLSELDEDDLCYEFRRERFTVHRTHLYFLHYEYEPAADSTDVTLVAQLSMDRLQMLEAICKHWEGPISLALYLSDAEAQQFLRYAQGSEVLMSRHNVGYHIVYKEGQFYPVNLLRNVAMKHISTPYMFLSDIDFLPMYGLYEYLRKSVIQLDLANTKKAMIVPAFETLRYRLSFPKSKAELLSMLDMGTLFTFRYHVWTKGHAPTNFAKWRTATTPYRVEWEADFEPYVVVRRDCPEYDRRFVGFGWNKVAHIMELDVQEYEFIVLPNAYMIHMPHAPSFDITKFRSNKQYRICLKTLKEEFQQDMSRRYGFAALKYLTAENNS
Regarding B1, the “stoichiometry N” value in series [4] turned out to be 2.

The record behind these values is article doi:10.1101/2022.05.11.491581 (bioRxiv, 2022).
